This is an account of results in PMC9063426, “MAP kinases differentially bind and phosphorylate NOS3 via two unique NOS3 sites” (FEBS Open Bio, 2022).

The chains are these.
T1: Nitric oxide synthase 3 (NOS3), bovine, full-length (bovine, UniProt P29473 1-1205)
T1 construct: Nitric oxide synthase 3 (endothelial NOS), bovine, heterologously expressed in E. coli; called full-length NOS3 in the abstract and discussion; also called eNOS; endothelial nitric oxide synthase; source: E. coli BL21(DE3), purified
T1 sequence (looked up): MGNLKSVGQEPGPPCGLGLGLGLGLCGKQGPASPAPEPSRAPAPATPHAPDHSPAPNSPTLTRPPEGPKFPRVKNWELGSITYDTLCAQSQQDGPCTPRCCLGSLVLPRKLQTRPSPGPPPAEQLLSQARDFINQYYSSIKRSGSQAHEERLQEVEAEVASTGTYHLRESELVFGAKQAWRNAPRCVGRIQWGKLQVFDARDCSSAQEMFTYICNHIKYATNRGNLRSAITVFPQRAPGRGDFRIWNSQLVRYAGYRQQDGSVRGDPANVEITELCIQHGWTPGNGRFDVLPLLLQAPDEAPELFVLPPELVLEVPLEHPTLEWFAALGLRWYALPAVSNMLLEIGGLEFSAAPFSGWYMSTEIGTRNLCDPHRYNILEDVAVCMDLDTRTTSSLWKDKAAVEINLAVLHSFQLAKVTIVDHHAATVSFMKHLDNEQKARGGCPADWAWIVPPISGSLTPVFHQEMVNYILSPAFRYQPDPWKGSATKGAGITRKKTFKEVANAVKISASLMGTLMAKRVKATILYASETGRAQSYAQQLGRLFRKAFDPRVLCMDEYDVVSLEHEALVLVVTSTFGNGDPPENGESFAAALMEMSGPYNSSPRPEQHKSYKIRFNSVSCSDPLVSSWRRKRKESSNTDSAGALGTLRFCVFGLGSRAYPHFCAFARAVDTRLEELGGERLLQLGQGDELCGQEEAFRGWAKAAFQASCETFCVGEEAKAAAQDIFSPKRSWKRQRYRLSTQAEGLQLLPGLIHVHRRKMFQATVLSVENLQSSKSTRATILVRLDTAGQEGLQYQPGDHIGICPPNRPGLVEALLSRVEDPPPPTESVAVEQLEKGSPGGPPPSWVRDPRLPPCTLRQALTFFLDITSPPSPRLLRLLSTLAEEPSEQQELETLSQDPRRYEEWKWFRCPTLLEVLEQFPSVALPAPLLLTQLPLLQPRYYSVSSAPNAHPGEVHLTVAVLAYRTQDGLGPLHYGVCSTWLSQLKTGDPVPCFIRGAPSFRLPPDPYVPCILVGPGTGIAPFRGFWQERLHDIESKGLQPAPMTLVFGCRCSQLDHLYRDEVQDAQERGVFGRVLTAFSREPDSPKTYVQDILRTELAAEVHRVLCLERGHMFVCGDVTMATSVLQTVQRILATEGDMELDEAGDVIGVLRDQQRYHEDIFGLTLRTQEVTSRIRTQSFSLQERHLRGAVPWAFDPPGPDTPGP

B1: NOS3 (bovine), full-length (enzyme, UniProt P29473 1-1205, looked up)
chain: T1 sequence (looked up)
notes: Nitric oxide synthase 3 (endothelial NOS), bovine, heterologously expressed; called full-length in the abstract and discussion; also called nitric oxide synthase 3; eNOS; source: E. coli BL21(DE3), purified
B2: AI peptide (NOS3 autoinhibitory loop site) (peptide)
peptide: Biotin-YKIRFNSISCSDPLVSSWRRKRKESSNTDSA
notes: source: synthetic peptide, bought: Biomatik
B3: NOS3 AI peptide (autoinhibitory loop site), biotinylated (peptide)
peptide: Biotin-YKIRFNSISCSDPLVSSWRRKRKESSNTDSA
notes: source: synthetic peptide (Biomatik)
B4: NOS3 NtMAP peptide (N-terminal MAP kinase site), biotinylated (peptide)
peptide: Biotin-CTPRRCLGSLVFPRKLQGRPSPGPPA
modifications: cysteine pairing not given here
notes: Human NOS3, N-terminal MAP kinase (NtMAP) site with the S114 site, unphosphorylated; source: synthetic peptide (Biomatik)
B5: Active GST-JNK1α1 (SignalChem), biotinylated (enzyme, UniProt P45983-2 1-384, looked up)
chain: MSRSKRDNNFYSVEIGDSTFTVLKRYQNLKPIGSGAQGIVCAAYDAILERNVAIKKLSRPFQNQTHAKRAYRELVLMKCVNHKNIIGLLNVFTPQKSLEEFQDVYIVMELMDANLCQVIQMELDHERMSYLLYQMLCGIKHLHSAGIIHRDLKPSNIVVKSDCTLKILDFGLARTAGTSFMMTPYVVTRYYRAPEVILGMGYKENVDLWSVGCIMGEMVCHKILFPGRDYIDQWNKVIEQLGTPCPEFMKKLQPTVRTYVENRPKYAGYSFEKLFPDVLFPADSEHNKLKASQARDLLSKMLVIDASKRISVDEALQHPYINVWYDPSEAEAPPPKIPDKQLDEREHTIEEWKELIYKEVMDLEERTKNGVIRGQPSPLAQVQQ
modifications: active (phosphorylated) form; biotinylated by amine crosslinking to NHS-LC-LC-biotin, 5 : 1 molar ratio of biotin to protein
notes: also called c-Jun N-terminal kinase; source: bought: SignalChem (Lot #X561-2)
B6: Active GST-JNK1α1 (SignalChem) (enzyme, UniProt P45983-2 1-384, looked up)
chain: B5 chain
modifications: active (phosphorylated) form, sites not given; biotin by amine crosslinking to NHS-LC-LC-biotin (5:1 biotin to protein)
notes: Biotinylated and held on streptavidin sensors for the NOS3 experiment; also called c-Jun N-terminal kinase; source: bought: SignalChem (JNK1, Lot #X561-2), GST-purified, active
B7: NtMAP peptide (NOS3 N-terminal MAP kinase site) (peptide)
peptide: Biotin-CTPRRCLGSLVFPRKLQGRPSPGPPA
modifications: cysteine pairing not given here
notes: Human NOS3, N-terminal MAP kinase (NtMAP) site with the S114 site; source: synthetic peptide, bought: Biomatik

Where no end group is shown, it is not given here. The star is where a group is joined. Biotin = O=C1N[C@H]2[C@H](CS[C@H]2CCCCC(=O)*)N1

Holding throughout (settings): both partners purified
Test [1] concerns the target B6. The test can be described thus: BLI; biotinylated active GST-JNK1α1 (or the fusion partner alone as control) on streptavidin sensors, NOS3 as analyte at 25-800 nM; 25 °C; 50 mM Tris pH 7.4, 10 mM NaCl, 10% glycerol, 0.01% Tween-20; global one-state association-then-dissociation fit.
Test [2] addresses p38α, inactive (unphosphorylated), His-purified (UniProt Q16539 1-360). The test can be described thus: BLI; N-terminally biotinylated NOS3 peptides on streptavidin sensors, inactive MAP kinases as analytes at 31-1000 nM; 25 °C; PBS with 10% glycerol, 0.005% tween, 1 mM DTT; global one-state association-then-dissociation fit.
For test [3] the target is unchanged. Nature of the test: BLI; N-terminally biotinylated NOS3 peptides on streptavidin sensors, inactive MAP kinases as analytes (31 to 1000 nM); 25 °C; PBS with 10% glycerol, 0.005% tween, 1 mM DTT; global one-state association-then-dissociation fit. (Biolayer interferometry detects binding as a change in optical thickness at a sensor tip.)
Target sequence in this assay (Q16539 whole entry): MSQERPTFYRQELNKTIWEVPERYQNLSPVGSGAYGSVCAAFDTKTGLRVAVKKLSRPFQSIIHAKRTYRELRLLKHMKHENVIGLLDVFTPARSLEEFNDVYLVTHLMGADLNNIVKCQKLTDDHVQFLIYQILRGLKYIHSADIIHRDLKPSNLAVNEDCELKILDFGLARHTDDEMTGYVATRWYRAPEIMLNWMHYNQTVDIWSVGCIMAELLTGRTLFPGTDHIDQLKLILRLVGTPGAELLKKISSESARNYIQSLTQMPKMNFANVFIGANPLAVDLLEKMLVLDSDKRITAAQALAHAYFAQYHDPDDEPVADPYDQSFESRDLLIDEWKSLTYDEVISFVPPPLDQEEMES
Test [4] concerns the target T1, Nitric oxide synthase 3 (NOS3), bovine, …. Nature of the test: BLI; biotinylated active GST-JNK1α1 on streptavidin sensors, NOS3 as analyte (25 to 800 nM); 25 °C; 50 mM Tris pH 7.4, 10 mM NaCl, 10% glycerol, 0.01% Tween-20; global one-state association-then-dissociation fit.
Test [5] deals with B1. Nature of the test: BLI; biotinylated active GST-JNK1α1 (or the fusion partner alone as control) on streptavidin sensors, NOS3 as analyte at 25-800 nM; 25 °C; 50 mM Tris pH 7.4, 10 mM NaCl, 10% glycerol, 0.01% Tween-20; global one-state association-then-dissociation fit.

In the case of B1, in test [1], the “KD (fit without the 400 nM trace)” value worked out at 18 nM.
In general, Kd refers to the free concentration of one partner at which half of the binding sites on the other are occupied at equilibrium, for simple one-to-one binding. High values mean a looser complex, low ones a tighter complex. By koff is commonly meant the rate constant with which the complex falls apart. Lower therefore signals a long-lived complex. The kon is a measure of how fast the partners come together. Low values mean slower complex formation, high ones faster complex formation. In test [2], B2 showed a Kd of 61 nM, a dissociation rate constant (koff) of 0.00096 s⁻¹ and an on-rate constant (kon) of 16000 M⁻¹ s⁻¹.
Regarding B3, in test [3], the koff came to 0.000968 s⁻¹ and the kon was 15900 M⁻¹ s⁻¹.
For B4, in that order: 0.000534 s⁻¹ and 17300 M⁻¹ s⁻¹.
For the molecule B5, in test [4], the koff was 6.19e-05 s⁻¹.
In test [5], B6 came in with an equilibrium dissociation constant (Kd) of 15 nM, a dissociation rate constant (koff) of 6.2e-05 s⁻¹ and an on-rate constant (kon) of 4110 M⁻¹ s⁻¹.
For B7, in test [2], the Kd was 31 nM, the koff is 0.00053 s⁻¹ and the kon is 17000 M⁻¹ s⁻¹.
